± gives the uncertainty stated by the source.
B1: Histone H1t, residues 44 to 112; numbered along this chain, P22492 (parent)
chain: VSKLITEALSVSQERVGMSLVALKKALAAAGYDVEKNNSRIKLSLKSLVNKGILVQTRGTGASGSFKLS

Variants of: B1
Assay: abundance fitness (aPCA) (normalised: wild type 0, dead -1); higher = more abundant; growth selection in yeast, the domain comes from the species named
Conditions: Homo sapiens

Point of comparison: VSKLITEALSVSQERVGMSLVALKKALAAAGYDVEKNNSRIKLSLKSLVNKGILVQTFGTGASGSFKLS, abundance fitness -0.115 ± 0.068. Against it:
- VSKLITEALSVSQERVGMSLVALKKALAAAGYDVEKNNSRIKLSLKSLVNKGILVQTKGTGASGSFKLS — higher, 0.155 ± 0.048
- VSKLITEALSVSQERVGMSLVALKKALAAAGYDVEKNNSRIKLSLKSLVNKGILVQTWGTGASGSFKLS — within error, -0.151 ± 0.042
- VSKLITEALSVSQERVGMSLVALKKALAAAGYDVEKNNSRIKLSLKSLVNKGILVQTDGTGASGSFKLS — higher, 0.022 ± 0.052
- VSKLITEALSVSQERVGMSLVALKKALAAAGYDVEKNNSRIKLSLKSLVNKGILVQTPGTGASGSFKLS — within error, -0.02 ± 0.034
- VSKLITEALSVSQERVGMSLVALKKALAAAGYDVEKNNSRIKLSLKSLVNKGILVQTYGTGASGSFKLS — within error, -0.246 ± 0.076
- VSKLITEALSVSQERVGMSLVALKKALAAAGYDVEKNNSRIKLSLKSLVNKGILVQTAGTGASGSFKLS — higher, 0.078 ± 0.031
- VSKLITEALSVSQERVGMSLVALKKALAAAGYDVEKNNSRIKLSLKSLVNKGILVQTSGTGASGSFKLS — higher, 0.103 ± 0.035
- VSKLITEALSVSQERVGMSLVALKKALAAAGYDVEKNNSRIKLSLKSLVNKGILVQTCGTGASGSFKLS — within error, -0.121 ± 0.057
- VSKLITEALSVSQERVGMSLVALKKALAAAGYDVEKNNSRIKLSLKSLVNKGILVQTQGTGASGSFKLS — higher, 0.036 ± 0.038
- VSKLITEALSVSQERVGMSLVALKKALAAAGYDVEKNNSRIKLSLKSLVNKGILVQTMGTGASGSFKLS — within error, -0.077 ± 0.048
- VSKLITEALSVSQERVGMSLVALKKALAAAGYDVEKNNSRIKLSLKSLVNKGILVQTNGTGASGSFKLS — higher, 0.227 ± 0.074
- VSKLITEALSVSQERVGMSLVALKKALAAAGYDVEKNNSRIKLSLKSLVNKGILVQTEGTGASGSFKLS — higher, 0.028 ± 0.04
- VSKLITEALSVSQERVGMSLVALKKALAAAGYDVEKNNSRIKLSLKSLVNKGILVQTVGTGASGSFKLS — within error, -0.089 ± 0.034
- VSKLITEALSVSQERVGMSLVALKKALAAAGYDVEKNNSRIKLSLKSLVNKGILVQTIGTGASGSFKLS — within error, -0.09 ± 0.08
- VSKLITEALSVSQERVGMSLVALKKALAAAGYDVEKNNSRIKLSLKSLVNKGILVQTHGTGASGSFKLS — within error, -0.041 ± 0.065
- VSKLITEALSVSQERVGMSLVALKKALAAAGYDVEKNNSRIKLSLKSLVNKGILVQTLGTGASGSFKLS — within error, -0.073 ± 0.031
- VSKLITEALSVSQERVGMSLVALKKALAAAGYDVEKNNSRIKLSLKSLVNKGILVQTGGTGASGSFKLS — higher, 0.205 ± 0.03
- VSKLITEALSVSQERVGMSLVALKKALAAAGYDVEKNNSRIKLSLKSLVNKGILVQWRGTGASGSFKLS — lower, -0.252 ± 0.049
- VSKLITEALSVSQERVGMSLVALKKALAAAGYDVEKNNSRIKLSLKSLVNKGILVQLRGTGASGSFKLS — within error, -0.026 ± 0.026
- VSKLITEALSVSQERVGMSLVALKKALAAAGYDVEKNNSRIKLSLKSLVNKGILVQFRGTGASGSFKLS — within error, -0.14 ± 0.04
- VSKLITEALSVSQERVGMSLVALKKALAAAGYDVEKNNSRIKLSLKSLVNKGILVQNRGTGASGSFKLS — within error, -0.058 ± 0.057
- VSKLITEALSVSQERVGMSLVALKKALAAAGYDVEKNNSRIKLSLKSLVNKGILVQYRGTGASGSFKLS — within error, -0.133 ± 0.059
- VSKLITEALSVSQERVGMSLVALKKALAAAGYDVEKNNSRIKLSLKSLVNKGILVQIRGTGASGSFKLS — within error, -0.147 ± 0.049
- VSKLITEALSVSQERVGMSLVALKKALAAAGYDVEKNNSRIKLSLKSLVNKGILVQKRGTGASGSFKLS — within error, -0.011 ± 0.045
- VSKLITEALSVSQERVGMSLVALKKALAAAGYDVEKNNSRIKLSLKSLVNKGILVQQRGTGASGSFKLS — higher, -0.013 ± 0.032
- VSKLITEALSVSQERVGMSLVALKKALAAAGYDVEKNNSRIKLSLKSLVNKGILVQHRGTGASGSFKLS — higher, -0.001 ± 0.041
- VSKLITEALSVSQERVGMSLVALKKALAAAGYDVEKNNSRIKLSLKSLVNKGILVQGRGTGASGSFKLS — within error, -0.102 ± 0.063
- VSKLITEALSVSQERVGMSLVALKKALAAAGYDVEKNNSRIKLSLKSLVNKGILVQVRGTGASGSFKLS — within error, -0.052 ± 0.044
- VSKLITEALSVSQERVGMSLVALKKALAAAGYDVEKNNSRIKLSLKSLVNKGILVQCRGTGASGSFKLS — within error, -0.019 ± 0.047
- VSKLITEALSVSQERVGMSLVALKKALAAAGYDVEKNNSRIKLSLKSLVNKGILVQPRGTGASGSFKLS — within error, -0.061 ± 0.03
- VSKLITEALSVSQERVGMSLVALKKALAAAGYDVEKNNSRIKLSLKSLVNKGILVQMRGTGASGSFKLS — within error, -0.048 ± 0.034
- VSKLITEALSVSQERVGMSLVALKKALAAAGYDVEKNNSRIKLSLKSLVNKGILVQERGTGASGSFKLS — higher, 0.117 ± 0.084
- VSKLITEALSVSQERVGMSLVALKKALAAAGYDVEKNNSRIKLSLKSLVNKGILVQSRGTGASGSFKLS — within error, -0.039 ± 0.033
- VSKLITEALSVSQERVGMSLVALKKALAAAGYDVEKNNSRIKLSLKSLVNKGILVQRRGTGASGSFKLS — within error, -0.036 ± 0.032
- VSKLITEALSVSQERVGMSLVALKKALAAAGYDVEKNNSRIKLSLKSLVNKGILVQTRCTGASGSFKLS — within error, -0.015 ± 0.068
- VSKLITEALSVSQERVGMSLVALKKALAAAGYDVEKNNSRIKLSLKSLVNKGILVQTRDTGASGSFKLS — within error, 0.025 ± 0.078
- VSKLITEALSVSQERVGMSLVALKKALAAAGYDVEKNNSRIKLSLKSLVNKGILVQTRETGASGSFKLS — within error, -0.086 ± 0.053
- VSKLITEALSVSQERVGMSLVALKKALAAAGYDVEKNNSRIKLSLKSLVNKGILVQTRATGASGSFKLS — within error, -0.148 ± 0.04

From the Human Domainome abundance scans (Beltran et al. 2025)
